PMC10966536

System: NmPAL (PAS-ANTAR-LOV photoreceptor) (Nakamurella multipartita)
Experiment: fluorescence anisotropy
Conditions: FA: 4 nM RNA, 12 mM HEPES/HCl pH 7.7, 135 mM KCl, 10 mM NaCl, 1 mM MgCl2, 10% w/v glycerol, 100 ug/mL BSA, dark, or after 60 s blue light (465 nm), temperature …

Row | Sequence | Kd (blue light, two-site fit, high-affinity site (second transition micromolar)) [µM] | Kd (darkness, text elsewhere calls this micromolar binding) [µM] | Kd (blue light, text says 83-fold reduced) [µM]
1 | ACCUUCGGUUCAGCAGCGAGCCG [58 (motif 3), TAMRA] | 0.0035 | > 3 | –
2 | ACCUUCGGUUCAGCUGCGAGCCG [58.M21, TAMRA] | – | – | 0.25
